The assay addresses T1, ERα (Homo sapiens, UniProt P03372).
T1 construct: expressed in transfected cells; host or cells: SHM (Syrian hamster myocyte) cells
T1 sequence (P03372 1-595): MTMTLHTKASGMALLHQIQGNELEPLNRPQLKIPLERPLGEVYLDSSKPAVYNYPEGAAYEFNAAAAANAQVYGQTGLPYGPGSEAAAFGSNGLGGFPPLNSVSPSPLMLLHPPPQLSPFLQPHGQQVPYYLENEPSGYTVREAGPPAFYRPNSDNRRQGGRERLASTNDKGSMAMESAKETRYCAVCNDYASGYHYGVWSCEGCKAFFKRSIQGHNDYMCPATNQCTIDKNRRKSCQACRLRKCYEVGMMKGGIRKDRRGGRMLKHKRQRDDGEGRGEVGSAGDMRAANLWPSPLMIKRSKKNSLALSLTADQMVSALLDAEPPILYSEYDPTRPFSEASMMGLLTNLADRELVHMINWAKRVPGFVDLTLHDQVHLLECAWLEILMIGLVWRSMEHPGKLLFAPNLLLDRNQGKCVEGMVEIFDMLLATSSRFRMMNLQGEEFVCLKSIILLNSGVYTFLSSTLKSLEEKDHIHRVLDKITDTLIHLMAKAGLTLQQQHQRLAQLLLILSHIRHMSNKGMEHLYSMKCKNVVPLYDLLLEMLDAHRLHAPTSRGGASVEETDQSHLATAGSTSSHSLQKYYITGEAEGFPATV
Briefly: ERα transactivation, 3xERE luciferase reporter in SHM cells. Format: cell-based. To be noted: 3xERE promoter. On the procedure: FIG. 4. PSF inhibit transactivation of PR but not estrogen receptor (ER). (A) SHM cells were transient cotransfected with PRA or PRB expression vectors with or without increasing dose (0.05, 0.1 and 0.2 μg) of His-PSF, together with 3×PRE (upper) or MMTV (lower) luciferase reporter vector. Four hours after transfection, culture medium was replaced with fresh DMEM containing 10 nM progesterone and the incubation continued for at least 30 hours. (B) SHM cells were transiently cotransfected with ERα or ERβ expression vector with (0.2 μg) or without His-PSF, together with 3×ERE luciferase reporter vector. Four hours after transfection, culture medium was replaced with fresh DMEM with (solid bar) or without (empty bar) 10 nM estrodial and incubation continued for at least 30 hours. Luciferase activity was measured and normalized by β-galatosidase activity. […]
For immunoprecipitation of the endogenous PR and PSF, T47D cells cultured in 150 mm dishes were lysed in 800 μl NETN buffer containing 150 mM NaCl plus protease inhibitor cocktail. […] Gels were treated with Enhancer (NEN, Boston, US) dried and analyzed by autoradiography. • Cell culture and transient transfection: SHM cells and 293T cells were maintained in DMEM plus 5% FCS (Sigma) as described before (22). […] Luciferase activity was determined by using the luciferin reagent (Promega) according to manufacture's protocol. […]
On the technique in general: Reporter assays use an easily measured gene product as a stand-in for the process of interest.

B1: polypyrimidine tract binding protein-associated splicing factor (protein)
chain: MSRDRFRSRGGGGGGFHRRGGGGGRGGLHDFRSPPPGMGLNQNRGPMGPGPGQSGPKPPIPPPPPHQQQQQPPPQQPPPQQPPPHQPPPHPQPHQQQQPPPPPQDSSKPVVAQGPGPAPGVGSAPPASSSAPPATPPTSGAPPGSGPGPTPTPPPAVTSAPPGAPPPTPPSSGVPTTPPQAGGPPPPPAAVPGPGPGPKQGPGPGGPKGGKMPGGPKPGGGPGLSTPGGHPKPPHRGGGEPRGGRQHHPPYHQQHHQGPPPGGPGGRSEEKISDSEGFKANLSLLRRPGEKTYTQRCRLFVGNLPADITEDEFKRLFAKYGEPGEVFINKGKGFGFIKLESRALAEIAKAELDDTPMRGRQLRVRFATHAAALSVRNLSPYVSNELLEEAFSQFGPIERAVVIVDDRGRSTGKGIVEFASKPAARKAFERCSEGVFLLTTTPRPVIVEPLEQLDDEDGLPEKLAQKNPMYQKERETPPRFAQHGTFEYEYSQRWKSLDEMEKQQREQVEKNMKDAKDKLESEMEDAYHEHQANLLRQDLMRRQEELRRMEELHNQEMQKRKEMQLRQEEERRRREEEMMIRQREMEEQMRRQREESYSRMGYMDPRERDMRMGGGGAMNMGDPYGSGGQKFPPLGGGGGIGYEANPGVPPATMSGSMMGSDMRTERFGQGGAGPVGGQGPRGMGPGTPAGYGRGREEYEGPNKKPRF
notes: expressed from transfected His-PSF vector or in vitro translated
With B1, the “inhibitory effects on ERα” value is “not observed”.

The values are drawn from patent publication US20070286806A1, “Methods and Compositions for Modulating a Steroid Receptor” (Mount Sinai Hospital, priority 2004, published 2007).
